Data on one substance can be found in article PMC5525146.

This assay has as its target Actin from rabbit muscle (rabbit) (UniProt P68135). In words: co-sedimentation.

In turn, “Palld-Ig3 K38/51A double mutant (domain or fragment)” returned a percent of protein co-sedimented with F-actin at saturation of 20 to 22%.
